The results in this text go back to US20230406922A1.

The target of experiment [1] is monkey CD19, full length, on HEK293T cells (monkey). Kind of experiment: FACS on HEK293T-monkey CD19 cells.
Experiment [2] addresses human CD19, full length, on cells (human) (UniProt P15391). The experiment is described as follows: FACS on CHO-K1-human CD19-1C4 cells.
Experiment [3] has the same target. Kind of experiment: FACS on CHO-K1-human CD19-1C9 cells.
Experiment [4] has the same target. Kind of experiment: FACS on CHO-K1-human CD19-2C8 cells.
Experiment [5] has the same target. Kind of experiment: FACS on CHO-K1-human CD19-2G4 cells.
For experiment [6] the target is unchanged. Kind of experiment: FACS on Raji cells (endogenous CD19).
Experiment [7] has the same target. The experiment is described as follows: FACS on Raji cells.
The target in experiment [8] is murine CD19 protein (murine) (UniProt P25918). The experiment is described as follows: ELISA, murine CD19 coated.
In experiment [9] the target is human CD19, full length, on cells (human) (UniProt P15391). The experiment is described as follows: FACS on CHO-K1-human CD19 cells.
Experiment [10] has as its target human CD19-his protein (human) (UniProt P15391). Kind of experiment: ELISA, human CD19-his coated at 4 ug/mL.
In experiment [11] the target is cynomolgus monkey CD19 on peripheral blood B cells (cynomolgus monkey (Macaca fascicularis)). The experiment is described as follows: FACS on cynomolgus monkey PBMC, gated on CD20-positive B cells.

murine CD19 protein (murine), sequence (P25918 19-287 limits assumed): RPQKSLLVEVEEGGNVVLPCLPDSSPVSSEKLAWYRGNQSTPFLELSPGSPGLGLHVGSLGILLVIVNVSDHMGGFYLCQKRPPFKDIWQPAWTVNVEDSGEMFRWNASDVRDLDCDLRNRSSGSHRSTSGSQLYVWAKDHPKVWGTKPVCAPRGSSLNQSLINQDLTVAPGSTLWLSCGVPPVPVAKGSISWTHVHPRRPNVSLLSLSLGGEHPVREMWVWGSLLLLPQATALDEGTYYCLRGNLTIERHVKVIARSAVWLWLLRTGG

In the case of IgG subtype control (antibody), the mean fluorescence intensity of cells in [1] turned out to be 62 MFI; in experiment [2], 50 MFI; in [3], 50 MFI; in experiment [4], 50 MFI; in experiment [5], 50 MFI; in [6], 78 MFI.
“negative control antibody mIgG1 (anti-hel-mIgG1, antibody against hen egg lysozyme)” returned a maximum mean fluorescence intensity in [7] of 382 MFI. In [8], this substance yielded an OD450 at 0.0001 nM of 0.07 OD450, an OD450 at 0.001 nM of 0.06 OD450, an OD450 at 0.01 nM of 0.06 OD450 and an OD450 at 0.10 nM of 0.06 OD450. Moreover, in experiment [8], the OD450 at 1.00 nM is 0.06 OD450, the OD450 at 10.00 nM worked out at 0.08 OD450 and the OD450 at 100.00 nM was 0.11 OD450. In addition, the maximum mean fluorescence intensity in [9] worked out at 102 MFI. Further, the maximum mean fluorescence intensity in experiment [1] stood at 165 MFI. Further, in [10], the OD450 at 0.0001 nM came to 0.11 OD450, the OD450 at 0.001 nM came to 0.12 OD450, the OD450 at 0.01 nM worked out at 0.11 OD450 and the OD450 at 0.10 nM was determined as 0.11 OD450. In addition, in experiment [10], the OD450 at 1.00 nM was found to be 0.11 OD450, the OD450 at 10.00 nM worked out at 0.12 OD450 and the OD450 at 100.00 nM came to 0.15 OD450. In experiment [11], this substance came in with a proportion of positive cells to B cells (%) at 1 nM of 3%, a proportion of positive cells to B cells (%) at 10 nM of 5% and a proportion of positive cells to B cells (%) at 100 nM of 11%.
